The target of experiment [1] is T1, Fluorescently labeled recombinant Nogo-A-Δ20 (rat aa544-725) (rat, UniProt Q9JK11-1 544-725, fluorescent label (Amine Reactive Protein labeling kit RED, L001, Nano Temper technologies)).
T1 construct: Nogo-A (Rtn4), rat, residues 544-725 (Nogo-A-Δ20 domain); not shown: T7 or HA (His-/T7- or His-/HA-tagged)
T1 sequence (looked up): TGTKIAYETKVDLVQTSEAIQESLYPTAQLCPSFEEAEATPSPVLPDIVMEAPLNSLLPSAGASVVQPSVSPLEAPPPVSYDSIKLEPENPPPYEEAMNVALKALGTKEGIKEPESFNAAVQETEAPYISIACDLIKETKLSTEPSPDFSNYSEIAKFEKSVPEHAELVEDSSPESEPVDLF
Put plainly: MST; Monolith NT.115; fluorescently labeled Nogo-A-Δ20 constant (~40 nM), peptides serially diluted; PBS with 0.025% Tween-20, pH 7.4; LED 60%, IR laser 20%; non-linear regression with Hill coefficient 1.0. The settings on record: both partners purified.

Experiment [2] concerns the target T2, Fluorescently labeled recombinant Nogo-A-Δ20 (rat aa544-725) (rat), Q9JK11.
T2 chain: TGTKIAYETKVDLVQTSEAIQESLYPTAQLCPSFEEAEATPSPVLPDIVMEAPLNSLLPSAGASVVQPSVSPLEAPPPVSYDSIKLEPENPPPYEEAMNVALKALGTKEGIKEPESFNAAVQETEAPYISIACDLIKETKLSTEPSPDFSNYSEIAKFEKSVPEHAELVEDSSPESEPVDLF
The experiment is described as above. The settings on record: remark: other sources report otherwise.

B1: S1PR2 extracellular loop 1 peptide (peptide)
peptide: LSGHVTLSLTPVQW
notes: Extracellular loop 1 of S1PR2; also called ECL1; source: synthetic peptide (JPT Peptide Technologies)
For the molecule B1, the dissociation constant Kd (in general, the free concentration of one partner at which half of the binding sites on the other are occupied at equilibrium, for simple one-to-one binding) in experiment [1] is around 1700 nM.

B2: S1PR2 extracellular loop 2 peptide (peptide)
peptide: NCLNQLEACSTVLPLYAKHYVL
modifications: here or on the partner: fluorescent label (Amine Reactive Protein labeling kit RED, L001, Nano Temper technologies)
For B2, in experiment [2], the Kd is 280 nM.

B3: S1PR2 N-terminus peptide (peptide)
peptide: MGGLYSEYLNPEKVQEHYNYTKETLDMQETPSRK
notes: Extracellular N-terminus of S1PR2; source: synthetic peptide (JPT Peptide Technologies)
Consider B3, for which, in experiment [1], the Kd is around 11000 nM.

B4: S1PR2 extracellular loop 3 peptide (peptide)
peptide: SILLLDSTCPVRACPVLYK
modifications: here or on the partner: fluorescent label (Amine Reactive Protein labeling kit RED, L001, Nano Temper technologies)
Regarding B4, in experiment [2], the Kd worked out at 350 nM.
